Laboratory results reported in patent US20240294590A1.

Key:
[1] = target: Histidine tagged PSMGFR peptide (MUC1* extra cellular domain peptide); experiment: SPR, Biacore 3000, His-tagged PSMGFR peptide on NTA-Ni SAM chip
[2] = target: Histidine tagged PSMGFR peptide (MUC1* extra cellular domain peptide); experiment: SPR, Biacore 3000, His-tagged PSMGFR peptide on NTA-Ni SAM chip; hexamer signal divided by 3

Histidine tagged PSMGFR peptide (MUC1* extra cellular domain peptide), sequence (peptide, as listed by the source): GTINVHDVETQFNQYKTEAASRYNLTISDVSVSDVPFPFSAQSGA

Q: “NM23-S120G-hexamer (non-refolded soluble-fraction preparation of NM23-H1 S120G) (from UniProt P15531 1-152) (ligand)” was tested. Which amount of binding (RUs) [1] did it give?
A: The amount of binding (RUs) was 100 RU.

Q: And the fold less bound than NM23-S120G-dimer [2]?
A: Its fold less bound than NM23-S120G-dimer is 12 fold.
